Data: the supplement of paper PMC10567573
± gives the standard deviation.

Assay: protein stability index of a GFP-peptide fusion (GPS, HEK-293T) (PSI 1-6); higher = more stable
[1] = treatment: DMSO, c terminus: a fixed tail appended
[2] = treatment: MLN4924 1 uM, 8 h, c terminus: a fixed tail appended
[3] = treatment: DMSO, c terminus: native
[4] = treatment: MLN4924 1 uM, 8 h, c terminus: native
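Further: 24-mer peptide tiles fused after GFP, lentivirally expressed, FACS-sorted into six equal bins by GFP/DsRed ratio, decoded by Illumina sequencing, PSI is the read-weighted mean bin number.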

| Sequence | protein stability index [1] | protein stability index [2] | protein stability index [3] | protein stability index [4] |
| --- | --- | --- | --- | --- |
| TENEEQTQLTQNAVSCPYLPSNLL [KCNA4] | 4.49 ± 0.27 | 4.63 ± 0.12 | – | – |
| TEPPQNPVTPLGLQNEVPPQPDPV [SERTAD3] | 5.32 ± 0.26 | 5.48 ± 0.24 | – | – |
| TFDNDYSLSELLSQLDSGVSQAVE [RIPK4] | 4 ± 0.074 | 4.1 ± 0.26 | – | – |
| TFEVPEENTAETITRVLYEVFIEW [ZBED1] | 2.07 ± 0.4 | 2 ± 0.47 | – | – |
| TFEYTLLQPPHESRPQPIYYGFSE [ADAMTSL2] | 2.47 ± 0.28 | 2.58 ± 0.51 | – | – |
| TFLTVTDLIGLPWVCFIYTIMSLA [SLC2A12] | 3.38 ± 0.45 | 2.84 ± 0.58 | – | – |
| TFQNSVFVATFLRYAVVLNATWLV [SCD] | 3.01 ± 0.34 | 3.43 ± 0.43 | – | – |
| TGKWYELQDLQVTDILPQMITLSE [USP39] | 2.51 ± 0.29 | 2.85 ± 0.18 | – | – |
| TIFEKENFIGRQWEISDDYPSLQA [CRYBA1] | 3.26 ± 0.29 | 3 ± 0.32 | – | – |
| TIQKQLKDHSCKDNIREAFQIYDK [EFHC1] | 3.22 ± 0.13 | 3.13 ± 0.13 | – | – |
| TIYGKTFRVVDCDQFTQVFLESQG [EFHC1] | 2.19 ± 0.25 | 2.29 ± 0.39 | – | – |
| TKFGLFTPGSRIESILMSLPLTAR [CPOX] | 2.21 ± 0.3 | 2.2 ± 0.28 | – | – |
| TLIDGGEHYWEVRYEPDSKAFGVG [FSD1] | 2.65 ± 0.27 | 2.86 ± 0.39 | – | – |
| TLPPASRFIIIFEQIRFVMKAHSF [SOAT1] | 2.31 ± 0.48 | 2.57 ± 0.74 | – | – |
| TLQDLVFDECGITDDQLLALLPSL [PRAME] | 2.84 ± 0.26 | 3.03 ± 0.34 | – | – |
| TLSEAYIQIWKRRDNDETNQQGA [USP39] | – | – | 2.52 ± 0.65 | 3.24 ± 0.42 |
| TMSRSLDGASVNENHEIYMKDSMS [EPB41L3] | 5 ± 0.17 | 4.72 ± 0.43 | – | – |
| TNIRLPNVPSSSLPAQPNRKPGMS [CHMP4C] | 4.66 ± 0.28 | 4.51 ± 0.45 | – | – |
| TNNPRFDKMEGNPICVQIPWDKNP [CRY1] | 3.47 ± 0.3 | 3.69 ± 0.25 | – | – |
| TNVKFLAITTDCLQILAYGNQESK [CTNNB1] | 2 ± 0.2 | 2.17 ± 0.16 | – | – |
| TPDTRHPCSLGSSLVADYSDSESE [YJU2B] | 5.39 ± 0.23 | 5.59 ± 0.25 | – | – |
| TPLEPDAKDLPCDSKPESALGAPS [TBX5] | 5.41 ± 0.29 | 5.36 ± 0.23 | – | – |
| TPSSYAPSHPPRPLLPLDMQGNQI [ZBTB22] | 4.14 ± 0.1 | 4.3 ± 0.14 | – | – |

| Sequence | protein stability index [1] | protein stability index [2] | protein stability index [3] | protein stability index [4] |
| --- | --- | --- | --- | --- |
| TQSVSECITEDGRTVAVGDIVWGK [PWWP2B] | 4.09 ± 0.22 | 4.25 ± 0.21 | – | – |
| TREGFGHSTSLKVPLARSLQISEE [LCOR] | 3.39 ± 0.44 | 3.82 ± 0.22 | – | – |
| TRIEKRIVITGDADIDHDQALAQA [EPB41L3] | 4.48 ± 0.27 | 4.72 ± 0.25 | – | – |
| TRILDGGNPFLDVPQALSATTYKH [PSD2] | 3.62 ± 0.17 | 3.73 ± 0.21 | – | – |
| TSFEPEALGNLVEGMDFHRFYFEN [CAMK2B] | 3.14 ± 0.27 | 3.18 ± 0.26 | – | – |
| TSFFDSDEDDSTSRFSSSTEQSSA [DVL3] | 5.34 ± 0.085 | 5.25 ± 0.22 | – | – |
| TSSQKALMLELKSLQEEPVEGFRI [UBE2R2] | 3.11 ± 0.31 | 3.3 ± 0.24 | – | – |
| TTSWGLLSLGALVALCWQLGLLFE [SCNN1D] | 2.11 ± 0.13 | 2.13 ± 0.37 | – | – |
| TVRGATGIFPLSFVKILKDFPEED [NCF4] | 3.43 ± 0.51 | 3.57 ± 0.4 | – | – |
| TYRRLLEDGEDFNLGDALDSSNSM [KRT18] | 4.29 ± 0.14 | 4.52 ± 0.21 | – | – |
| VACGMVHLLIPELGACVAPGGNLI [DNAAF3] | 2.78 ± 0.27 | 3.11 ± 0.26 | – | – |
| VAPLADGKVAVGQDDLTVVLNEEG [VPS39] | 5.46 ± 0.18 | 5.59 ± 0.17 | – | – |
| VCLEYLKEPVIIECGHNFCKACIT [TRIM39] | 2.38 ± 0.55 | 2.28 ± 0.29 | – | – |
| VDPDNVVLCLLAADEDDDRDVALQ [GADD45A] | 4.63 ± 0.38 | 4.77 ± 0.08 | – | – |
| VEFVRHGDIIRLEHKETSRNLHSH [POMT2] | 3.02 ± 0.27 | 3.04 ± 0.25 | – | – |
| VETLLRHGAHINLQSLKFQGGHGP [RIPK4] | 2.63 ± 0.39 | 3.11 ± 0.24 | – | – |
| VEVDTAPTVDLNQVLNETRSQYEA [KRT34] | 5.2 ± 0.17 | 5 ± 0.32 | – | – |
| VFHLPFYSSNQLHHFFCDIAPVLK [OR10K2] | 2.23 ± 0.48 | 2.12 ± 0.15 | – | – |
| VFLASKVEEFGVVSNTRLIAAATS [CCNC] | 2.46 ± 0.68 | 2.24 ± 0.35 | – | – |
| VGELNGYLRDSSPAPCADGPAGGL [PWWP2B] | 4.29 ± 0.23 | 4.16 ± 0.068 | – | – |
| VGFMWRQRGRVISLWERLEFVNGW [MCOLN1] | 2.59 ± 0.65 | 3.05 ± 0.62 | – | – |
| VGNISKDLGLAPRELAERGVRIVS [PCDHGA10] | 3.57 ± 0.29 | 3.75 ± 0.42 | – | – |
| VGSGGRRDSTARRPRPQGRSVSEP [RTN2] | 5.09 ± 0.04 | 5.19 ± 0.15 | – | – |

| Sequence | protein stability index [1] | protein stability index [2] | protein stability index [3] | protein stability index [4] |
| --- | --- | --- | --- | --- |
| VGTESQGRDWRHLPTITSELSGAP [PXN] | 4.21 ± 0.23 | 4.21 ± 0.2 | – | – |
| VHEFCAGRECQPRWETSSWSECSR [ADAMTSL2] | 2.42 ± 0.28 | 2.85 ± 0.53 | – | – |
| VHGDPAVWWVSQFVKYLIRPQPWL [FUT8] | 2.95 ± 0.34 | 3.21 ± 0.6 | – | – |
| VHYMIHEPEPHILLFRRPLPKKPK [CKS1B] | 2.39 ± 0.23 | 2.57 ± 0.35 | – | – |
| VIWDFLTRGIAKIISAHIHPVCSL [RBBP5] | 3.31 ± 0.46 | 3.3 ± 0.35 | – | – |
| VKEGGSYGFSLKTVQGKKGVYMTD [PDZK1] | 3.39 ± 0.41 | 3.08 ± 0.53 | – | – |
| VKGSRVTVMEKCSDGWWRGSYNGQ [NCK2] | 2.13 ± 0.47 | 2.29 ± 0.34 | – | – |
| VLDFDFEKLCSISLSHINAYACLV [USP39] | 2.83 ± 0.59 | 2.56 ± 0.53 | – | – |
| VLLNSLQQYRQDQRDGSKSEDELD [CCND2] | 4.32 ± 0.18 | 4.15 ± 0.52 | – | – |
| VLPPIHAYGNRTECRNPQELESIR [FEM1B] | 4.14 ± 0.28 | 4 ± 0.21 | – | – |
| VLVNVLQAIYVIDFFWNETWYLKT [DHCR7] | 3.09 ± 0.25 | 3.22 ± 0.27 | – | – |
| VNPWIIIGGVATVVCQPNEFIMPD [SEPHS2] | 2.67 ± 0.38 | 3.05 ± 0.81 | – | – |
| VNQDILENKESWDKILALVPETIH [PRIM1] | 3.16 ± 0.19 | 2.85 ± 0.32 | – | – |
| VPERLLVVLDMEEGTLGYAIGGTY [SPSB2] | 2.69 ± 0.74 | 2.35 ± 0.56 | – | – |
| VPISVTGIAQVKIQGQNKEMLAAA [FLOT1] | 3.52 ± 0.27 | 3.61 ± 0.13 | – | – |
| VPSKPPMSLEPQNGTYAGPAPAFQ [ANKRD40] | 4.12 ± 0.41 | 4.25 ± 0.14 | – | – |
| VPVDTGVAARTPAVEGLTEAEEEE [TPD52L2] | 5.51 ± 0.15 | 5.4 ± 0.13 | – | – |
| VQIYNLSQNIQEDDLQQLQLFTEY [ATL3] | 2.44 ± 0.35 | 2.28 ± 0.27 | – | – |
| VQLSDEMFVFQDGRWVNENCRLQS [CBY2] | 3.06 ± 0.26 | 3.03 ± 0.34 | – | – |
| VRLHDSISEEGHHYLIFDLVTGGE [CAMK2A] | 2.23 ± 0.4 | 2.26 ± 0.18 | – | – |
| VRQINRKTPVPGKARKKSSCQLL [RAP1B] | – | – | 4.5 ± 0.27 | 4.44 ± 0.18 |
| VRVPNGGGGGGGLPISTVREVALL [CDK4] | 2.5 ± 0.33 | 2.63 ± 0.23 | – | – |
| VRWLRPVHRQLGEANEEFALRVQQ [AUP1] | 3.1 ± 0.25 | 3.02 ± 0.19 | – | – |

| Sequence | protein stability index [1] | protein stability index [2] | protein stability index [3] | protein stability index [4] |
| --- | --- | --- | --- | --- |
| VSQLYPESIVPIPSSNEEIRLVDD [INTS4] | 4.92 ± 0.18 | 4.88 ± 0.081 | – | – |
| VSQQTGSPGKQPGENSDCHRDSSQ [ZNF8] | 5.31 ± 0.47 | 5.47 ± 0.21 | – | – |
| VTINIQDLLSCSNFAVQHRYLFEE [MATN2] | 2.86 ± 0.35 | 2.87 ± 0.73 | – | – |
| VTPRTALLTWTEPPVRPAGYLLSF [TNXB] | 2.42 ± 0.29 | 2.2 ± 0.26 | – | – |
| VVAMARKLQDVFEMRFAKMPDEPV [BRD3] | 2.49 ± 0.29 | 2.64 ± 0.35 | – | – |
| VVGALPAEHQFSFMEKRNQWLVSQ [TRAF3IP2] | 2.36 ± 0.24 | 2.65 ± 0.26 | – | – |
| VVGDNAVGKTRLICARACNTTLTQ [RHOBTB1] | 2.69 ± 0.32 | 2.73 ± 0.38 | – | – |
| VVGTPCYISPELCEGKPYNQKSDI [NEK8] | 3.29 ± 0.38 | 3.49 ± 0.56 | – | – |
| VVHDWLYSYVYQDGLRLLGARARG [SOAT2] | 2.46 ± 0.44 | 2.28 ± 0.25 | – | – |
| VVSMTTVGYGDMYPVTIGGKIVGS [KCNA1] | 2.29 ± 0.36 | 2.14 ± 0.24 | – | – |
| VYSDHTNTNNLTFLMDLPSAGRSM [RNF180] | 2.29 ± 0.45 | 2.79 ± 0.42 | – | – |
| WDPNTGFDLNNLDPELKNLFDMCG [WASL] | 3.05 ± 0.36 | 3.1 ± 0.37 | – | – |
| WEISWPLEQRGTHAVVGVATALAP [SPSB2] | 2.44 ± 0.26 | 2.73 ± 0.36 | – | – |
| WIGNEWLPSLGLPQYRSYFMECLV [PPFIA4] | 3.67 ± 0.24 | 2.15 ± 0.088 | – | – |
| WIHRPGCRCKNSNTVYCKLESCPS [SPRY1] | 2.62 ± 0.26 | 3.21 ± 0.78 | – | – |
| WIIKKHNTNSDPLDPSFPVEFVRH [POMT2] | 2.54 ± 0.29 | 2.39 ± 0.51 | – | – |
| WKNFDERKEMATILSKMPKPKPPP [CCNC] | 3.63 ± 0.28 | 3.64 ± 0.31 | – | – |
| WLMTYVGAVFNGITLLILAELLIF [RTN3] | 2.49 ± 0.28 | – | – | – |
| WLSTAPTEPLTHWYQVRCLFQSPL [CARM1] | 2.44 ± 1 | 2.19 ± 0.4 | – | – |
| WLSYRLLKASEPGLFAVGEHTGEV [PCDHGA10] | 2.35 ± 0.11 | 2.31 ± 0.16 | – | – |
